Data reported in paper PMC5797236, “The odd one out: Arabidopsis reticulon 20 does not bend ER membranes but has a role in lipid regulation” (Scientific Reports, 2018).

B1: RTN19 fused to mRFP (Arabidopsis reticulon 19, 3BETAHSD/D2) (natural protein, Arabidopsis thaliana, UniProt Q67ZE1 1-564, looked up)
chain: MSPAATETERWCVVTGGRGFAARHLVEMLVRYEMFCVRIADLAPAIMLDPQEGNGVLDEGLRSGRVQYISADLRDKSQVVKAFQGAEVVFHMAAPDSSINNHQLQYSVNVQGTQNVIDACVDVGVKRLIYTSSPSVVFDGVHGILNGTESMAYPIKHNDSYSATKAEGEELIMKANGRNGLLTCCIRPSSIFGPGDRLLVPSLVAAARAGKSKFIIGDGNNLYDFTYVENVAHAHVCAERALASGGDVSTKAAGQAYFITNMEPIKFWEFMSQLLDGLGYERPSIKIPAFIMMPIAHLVELTYKVLGPYGMTVPQLTPSRVRLLSCSRTFDSTKAKDRLGYAPVVPLQEGIRRTIDSFSHLTAGSQSKREGPSKASRILGGGKVADTLLWKDLKQTLIAIFILISIYYNFVATGSTVVTALSKALLVASVFLFLHGILPEKIFGYTVEKIPASQFHLSKDSSHDLSLSVISSWNTTVKALRSLCQGNDWSFFFKVVFVLLALSLAGAISLHSIFVIGLPIAFLAFLVYEKKEQEIDSIVVSFKSFACKHKSDVYEKLFGSKKHD
notes: Reticulon 19 (RTN19, 3beta-hydroxysteroid dehydrogenase/C-4 decarboxylase isoform 2), Arabidopsis thaliana, locus At2g26260; FRET acceptor; also called RTNLB19; source: tobacco (Nicotiana tabacum) leaf epidermal cells, Agrobacterium-mediated transient expression, in living cells
B2: RTN2 fused to mRFP (Arabidopsis reticulon 2) (natural protein, Arabidopsis thaliana, UniProt Q9SUT9 1-271, looked up)
chain: MADEHKHEESSPNLDPAVEVVERESLMEKLSEKIHHKGDSSSSSSSDDENEKKSSSSSPKSLKSKVYRLFGRERPVHKVLGGGKPADIFMWKDKKMSGGVFGGATVAWVLFELMEYHLLTLLCHVMIVALAVLFLWSNATMFIHKSPPKIPEVHIPEEPLLQLASGLRIEINRGISSLREIASGRDIKKFLSAIAGLWVLSILGGCYSFLTLAYIALVLLFTVPLFYDKYEDKVDSYGEKAMAELKKQYAVLDAKVFSKIPRGPLKDKKKD
notes: Reticulon 2 (RTN2), Arabidopsis thaliana, locus AT4G11220; FRET acceptor; also called RTNLB2; source: tobacco (Nicotiana tabacum) leaf epidermal cells, Agrobacterium-mediated transient expression, in living cells
B3: RTN3 fused to mRFP (Arabidopsis reticulon 3) (natural protein, Arabidopsis thaliana, UniProt Q9SH59 1-255, looked up)
chain: MAEEHKHEESIMEKISEKIHGHDDSSSSSSDSDDDKNSASLKTKIYRLFGREQPLHKLFGGGKPADIFLWRNKKVSGGVLGAATVSWILFELLEYNLLTLFGHISILALAVLFLWSSASTFIHKSPLHIPEVHIPEDVVLQLASGLRIEINRGFTVLRDIASGRDLKKFLLVIAGLWVLSKVGSSCNFLTLIYIATVLLFTIPVLYEKYEDKVDDFGEKAMREIKKQYVEFDVKVLSKVMSKIPKGAFAFIKKKD
notes: Reticulon 3 (RTN3), Arabidopsis thaliana, locus AT1G64090; FRET acceptor; also called RTNLB3; source: tobacco (Nicotiana tabacum) leaf epidermal cells, Agrobacterium-mediated transient expression, in living cells
B4: mRFP-RTN1 (Arabidopsis reticulon 1) (natural protein, Arabidopsis thaliana, UniProt Q9SUR3 1-275, looked up)
chain: MAEEHKHDESVIAPEPAVEVVERESLMDKISEKIHHGGDSSSSSSSSDDEDEKKKTKKPSSPSSSMKSKVYRLFGREQPVHKVLGGGKPADIFMWKNKKMSGGVLGGATAAWVVFELMEYHLLTLLCHVMIVVLAVLFLWSNATMFINKSPPKIPEVHIPEEPILQLASGLRIEINRGFSSLREIASGRDLKKFLIAIAGLWVLSILGGCFNFLTLAYIALVLLFTVPLAYDKYEDKVDPLGEKAMIELKKQYAVLDEKVLSKIPLGPLKNKKKD
notes: Reticulon 1 (RTN1), Arabidopsis thaliana, locus AT4G23630; FRET acceptor; also called RTNLB1; source: tobacco (Nicotiana tabacum) leaf epidermal cells, Agrobacterium-mediated transient expression, in living cells; not shown: mRFP, N-terminal, kept

Biological target: T1, GFP-RTN20 (Arabidopsis reticulon 20) (Arabidopsis thaliana, UniProt A9X4U2 1-561)
T1 construct: Reticulon 20 (RTN20), Arabidopsis thaliana, locus At2g43420; FRET donor; the methods name Gateway vectors for N- or C-terminal GFP without saying which was used for each gene; also called RTNLB20; source: tobacco (Nicotiana tabacum) leaf epidermal cells, Agrobacterium-mediated transient expression, in living cells; not shown: GFP, N-terminal, kept
T1 sequence (looked up): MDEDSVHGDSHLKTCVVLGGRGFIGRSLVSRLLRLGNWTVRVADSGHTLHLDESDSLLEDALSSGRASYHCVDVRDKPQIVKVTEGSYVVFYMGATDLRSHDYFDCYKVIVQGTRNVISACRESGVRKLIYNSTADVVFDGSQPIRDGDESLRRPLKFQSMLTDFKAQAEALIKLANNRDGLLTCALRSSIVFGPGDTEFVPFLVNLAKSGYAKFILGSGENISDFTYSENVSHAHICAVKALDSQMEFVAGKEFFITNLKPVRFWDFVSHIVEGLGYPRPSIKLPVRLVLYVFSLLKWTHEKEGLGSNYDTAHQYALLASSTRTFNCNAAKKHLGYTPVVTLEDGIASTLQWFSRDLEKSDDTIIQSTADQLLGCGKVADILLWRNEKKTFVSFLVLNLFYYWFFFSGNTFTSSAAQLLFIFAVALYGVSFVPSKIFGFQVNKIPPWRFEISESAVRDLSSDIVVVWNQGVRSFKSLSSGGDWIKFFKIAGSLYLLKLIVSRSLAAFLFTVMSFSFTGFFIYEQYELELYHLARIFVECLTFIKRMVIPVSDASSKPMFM
Assay: FRET or BRET; FRET-FLIM in living tobacco leaf epidermal cells; GFP-RTN20 as donor, mRFP fusions as acceptors, transiently co-expressed; two-photon excitation at 920 nm; lifetimes measured at the ER associated with the nuclear envelope; donor alone 2.4 ± 0.03 ns
Conditions: partners not purified

In order of falling “GFP donor fluorescence lifetime (FRET-FLIM)” value:
1. B4  2.21 ± 0.02 ns
2. B1  2.2 ns
3. B2  2.2 ns
4. B3  2.2 ns
